# Measured values published in the supplement of paper PMC10899765.
# Test system: MCF10A
# Experiment: 5+ nucleoli phenotype percent effect (relative to siNT 0% and siKIF11 100%); higher = more cells with five or more nucleoli
# Details: 20 nM; 72 h
# Procedure: (§1)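 After 72 h, cells were fixed and stained with Hoechst and anti-fibrillarin, and nucleoli per nucleus were counted with CellProfiler. Values are plate-adjusted percent effect for the one-nucleolus and 5+ nucleoli phenotypes, normalised to siNT (0%) and to the positive controls siNOL11 or siKIF11 (100%), as the mean of biological triplicates. Percent viability is the nuclei count relative to siNT.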
row,Sequence,5+ nucleoli phenotype percent effect [%]
1,CCCCGGGGAGCCCGGCG [hsa-miR-4532],45.2
2,CUUCUGAUCAAGAUUUGUGGUG [hsa-miR-4762-3p],-38.7
3,UGUGCUUGCUCGUCCCGCCCGCA [hsa-miR-636],-6.7
4,CAACAAAUCACAGUCUGCCAUA [hsa-miR-7-1-3p],23.6
5,UUAAUUUUUUGUUUCGGUCACU [hsa-miR-4775],21.1
6,CUUCUGCCUGCAUUCUACUCCCAG [hsa-miR-6738-3p],-13.9
7,CACUGUUUCACCACUGGCUCUU [hsa-miR-4676-3p],18.4
8,GAAAGAGAGCUGAGUGUG [hsa-miR-4311],-27.3
9,UCACCAGCCCUGUGUUCCCUAG [hsa-miR-1226-3p],-42.2
10,AGGUUGGGAUCGGUUGCAAUGCU [hsa-miR-92a-1-5p],-34
11,ACCUUGCCUUGCUGCCCGGGCC [hsa-miR-1915-5p],-40.4
12,UCACCUGAGCUCCCGUGCCUG [hsa-miR-3622b-3p],29.9
13,UCCAGCUCGGUGGCAC [hsa-miR-4267],11.3
14,GGGGAGCUGUGGAAGCAGUA [hsa-miR-920],23.5
15,UAGUGAGUUAGAGAUGCAGAGCC [hsa-miR-3174],-38.2
16,CCCUGAGACCCUAACCUUAA [hsa-miR-4324],38.6
17,CCCCUGGGCCGGCCUUGG [hsa-miR-4292],31.4
18,UCUAAAGACUAGACUUCGCUAUG [hsa-miR-4744],32
19,AACCCCUAAGGCAACUGGAUGG [hsa-miR-5195-5p],2.35
20,AGGGUGUUUCUCUCAUCUCU [hsa-miR-609],53.7
21,UGACUUCUACCUCUUCCAAAG [hsa-miR-6505-3p],-48
22,CUCUAGAGGGAAGCACUUUCUC [hsa-miR-518f-5p],3.35
23,AUAUACCUGUUCGGUCUCUUUA [hsa-miR-3144-3p],-12.6
24,AGGCACCAGCCAGGCAUUGCUCAGC [hsa-miR-593-5p],-0.886
25,GGAUUCCUGGAAAUACUGUUCU [hsa-miR-145-3p],-19.5
26,CGGCUCUGGGUCUGUGGGGA [hsa-miR-760],-2.61
27,AGUGGGAGGACAGGAGGCAGGU [hsa-miR-6778-5p],-9.05
28,UCAAAACUGAGGGGCAUUUUCU [hsa-miR-1323],27.8
29,UCACCUGGCUGGCCCGCCCAG [hsa-miR-6765-3p],30.1
30,AGCGUGGGAUGUCCAUGAAGUCAG [hsa-miR-6853-5p],90.6

# Test system: MCF10A
# Experiment: percent viability (nuclei count relative to siNT); higher = more viable cells
# Details: 20 nM; 72 h
# Procedure: as §1
row,Sequence,percent viability [%]
1,AGUUCUUCAGUGGCAAGCUUUA [hsa-miR-22-5p],75.4
2,CAAAACUGGCAAUUACUUUUGC [hsa-miR-548a-3p],77.4
3,AAAGGAUUCUGCUGUCGGUCCCACU [hsa-miR-541-5p],51.1
4,UAAGGAGGGGGAUGAGGGG [hsa-miR-6891-5p],51.8
5,CUGCAGGCAGAAGUGGGGCUGACA [hsa-miR-6511b-5p],27.4
6,CUGGGAGAAGAGUGGUGAAGA [hsa-miR-6788-5p],24.9
7,ACUCGCAUCCUUCCCUUGGCAG [hsa-miR-6814-3p],118
8,AGAGGUAGGUGUGGAAGAA [hsa-miR-4458],42.7
9,CAAAAACCGCAAUUACUUUUGCA [hsa-miR-548h-3p],52
10,UUGGAGGCGUGGGUUUU [hsa-miR-4443],20.9
11,GGGGAACUGUAGAUGAAAAGGC [hsa-miR-8059],101
12,UCCAGGGAGACAGUGUGUGAG [hsa-miR-7113-5p],32.5
13,AAUCAUACAGGGACAUCCAGUU [hsa-miR-487a],56
14,AAGAAGAGACUGAGUCAUCGAAU [hsa-miR-5197-3p],24.8
15,GGGAGUCUACAGCAGGG [hsa-miR-4294],37.7
16,GUGAGACUUCUCUCCCUUCAG [hsa-miR-6864-3p],41.4
17,UACUCAAAAAGCUGUCAGUCA [hsa-miR-888-5p],82.3
18,UAGAUAAAAUAUUGGUACCUG [hsa-miR-577],113
19,UAUAGGGAUUGGAGCCGUGGCG [hsa-miR-135a-3p],63.5
20,UGAGUGACAGGGGAAAUGGGGA [hsa-miR-1236-5p],36.9

row,Sequence,percent viability [%]
1,CAAAGUGCCUCCCUUUAGAGUG [hsa-miR-519d],72.3
2,GUAUACACCUGAUAUGUGUAUG [hsa-miR-4789-5p],67.5
3,AGGCCUGUGGCUCCUCCCUCAG [hsa-miR-6735-3p],50.4
4,CACUAGAUUGUGAGCUCCUGGA [hsa-miR-28-3p],92.2
5,UCUGUCAUUUCUUUAGGCCAAUA [hsa-miR-215-3p],39.5
6,AUAGGCACCAAAAAGCAACAA [hsa-miR-4423-3p],12.9
7,CUGGUUUCACAUGGUGGCUUAG [hsa-miR-29b-2-5p],43.4
8,GGAGAUGGAGGUUGCAGUG [hsa-miR-1273f],62.9
9,UUUGUUCGUUCGGCUCGCGUGA [hsa-miR-375],59.7
10,CCCCGGGGAGCCCGGCG [hsa-miR-4532],148
11,CUUCUGAUCAAGAUUUGUGGUG [hsa-miR-4762-3p],30.5
12,UGUGCUUGCUCGUCCCGCCCGCA [hsa-miR-636],111
13,CAACAAAUCACAGUCUGCCAUA [hsa-miR-7-1-3p],98.9
14,UUAAUUUUUUGUUUCGGUCACU [hsa-miR-4775],88.3
15,CUUCUGCCUGCAUUCUACUCCCAG [hsa-miR-6738-3p],51.1
16,CACUGUUUCACCACUGGCUCUU [hsa-miR-4676-3p],49.2
17,GAAAGAGAGCUGAGUGUG [hsa-miR-4311],26.3
18,UCACCAGCCCUGUGUUCCCUAG [hsa-miR-1226-3p],31.7
19,AGGUUGGGAUCGGUUGCAAUGCU [hsa-miR-92a-1-5p],17.4
20,ACCUUGCCUUGCUGCCCGGGCC [hsa-miR-1915-5p],34.9

row,Sequence,percent viability [%]
1,UCACCUGAGCUCCCGUGCCUG [hsa-miR-3622b-3p],107
2,UCCAGCUCGGUGGCAC [hsa-miR-4267],34.5
3,GGGGAGCUGUGGAAGCAGUA [hsa-miR-920],53.2
4,UAGUGAGUUAGAGAUGCAGAGCC [hsa-miR-3174],38.1
5,CCCUGAGACCCUAACCUUAA [hsa-miR-4324],84
6,CCCCUGGGCCGGCCUUGG [hsa-miR-4292],26.6
7,UCUAAAGACUAGACUUCGCUAUG [hsa-miR-4744],106
8,AACCCCUAAGGCAACUGGAUGG [hsa-miR-5195-5p],53.1
9,AGGGUGUUUCUCUCAUCUCU [hsa-miR-609],74
10,UGACUUCUACCUCUUCCAAAG [hsa-miR-6505-3p],33.6
11,CUCUAGAGGGAAGCACUUUCUC [hsa-miR-518f-5p],33.5
12,AUAUACCUGUUCGGUCUCUUUA [hsa-miR-3144-3p],30
13,AGGCACCAGCCAGGCAUUGCUCAGC [hsa-miR-593-5p],40.2
14,GGAUUCCUGGAAAUACUGUUCU [hsa-miR-145-3p],55.6
15,CGGCUCUGGGUCUGUGGGGA [hsa-miR-760],53
16,AGUGGGAGGACAGGAGGCAGGU [hsa-miR-6778-5p],26.7
17,UCAAAACUGAGGGGCAUUUUCU [hsa-miR-1323],55.9
18,UCACCUGGCUGGCCCGCCCAG [hsa-miR-6765-3p],63.1
19,AGCGUGGGAUGUCCAUGAAGUCAG [hsa-miR-6853-5p],71.7
